Key:
[1] = target: SctV (SsaV) of the Salmonella enterica serovar Typhimurium SPI-2 injectisome, full-length, C-terminal 6xHis (Salmonella enterica serovar Typhimurium (strain 12023)) (UniProt P74856); experiment: cryo-EM structure; DDM-solubilised full-length SctV at ~1 mg/ml on continuous carbon film; C9 symmetry imposed, refinement focused on the cytoplasmic domain; buffer pH 8.0
[2] = target: SctV (SsaV) of the Salmonella enterica serovar Typhimurium SPI-2 injectisome, full-length, C-terminal 6xHis (Salmonella enterica serovar Typhimurium (strain 12023)) (UniProt P74856); experiment: cryo-EM 2D classification; amphipol A8-35-stabilised SctV on UltrAufoil gold grids without support film; 2D class averages only
[3] = target: SctV (SsaV) of the Salmonella enterica serovar Typhimurium SPI-2 injectisome, full-length, C-terminal 6xHis (Salmonella enterica serovar Typhimurium (strain 12023)) (UniProt P74856); experiment: SEC; Superose 6 10/300, 50 mM Tris-HCl pH 8.0, 50 mM NaCl, 0.03% DDM, 5 mM DTT; DDM-solubilised SctV
[4] = target: SctV (SsaV) of the Salmonella enterica serovar Typhimurium SPI-2 injectisome, full-length, C-terminal 6xHis (Salmonella enterica serovar Typhimurium (strain 12023)) (UniProt P74856); experiment: negative stain EM; purified SctV at about 0.05 mg/ml, 2% uranyl acetate, continuous carbon grids

Measured: stoichiometry N

SctV (SsaV) of the Salmonella enterica serovar Typhimurium SPI-2 injectisome, full-length, C-terminal 6xHis (from UniProt P74856 1-681) (natural protein)
9: all assays above
